Measured values as given in PMC9741652 (2022).
Read-outs that look alike come from different tables or passages of the source. Values belong to the binder of their own block, whether it stands above or below them.

Experiments:
Assay in all cases: ITC
ZER1 (residues 469–766) [1] = molecular target: T1, ZER1 (residues 469–766) (human, UniProt Q7Z7L7 469-766)
T1 chain: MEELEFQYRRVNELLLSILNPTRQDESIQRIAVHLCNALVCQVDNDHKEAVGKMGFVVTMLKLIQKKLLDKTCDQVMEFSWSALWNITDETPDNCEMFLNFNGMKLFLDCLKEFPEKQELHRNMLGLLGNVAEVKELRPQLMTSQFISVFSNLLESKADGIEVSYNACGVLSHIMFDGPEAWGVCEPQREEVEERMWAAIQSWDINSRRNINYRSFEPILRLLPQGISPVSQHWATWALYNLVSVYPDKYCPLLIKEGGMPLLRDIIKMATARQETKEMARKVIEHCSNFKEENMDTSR

[2] = molecular target: ZYG11B (residues 490–728) (UniProt Q9C0D3 490-728)
ZER1 (residues 469–766) [3] = molecular target: T1, ZER1 (residues 469–766)
[4] = molecular target: ZYG11B (residues 490–728) N523A (UniProt Q9C0D3 490-728, N523A)
[5] = molecular target: T2, ZER1 (residues 469–766) N553A (human, UniProt Q7Z7L7 469-766, N553A)
[6] = molecular target: T2, ZER1 (residues 469–766) N553A; remark: listed apart in the source

ZYG11B (residues 490–728) N523A, sequence (Q9C0D3 other isoform, or with tags, fused parts or gaps N523A | N523A): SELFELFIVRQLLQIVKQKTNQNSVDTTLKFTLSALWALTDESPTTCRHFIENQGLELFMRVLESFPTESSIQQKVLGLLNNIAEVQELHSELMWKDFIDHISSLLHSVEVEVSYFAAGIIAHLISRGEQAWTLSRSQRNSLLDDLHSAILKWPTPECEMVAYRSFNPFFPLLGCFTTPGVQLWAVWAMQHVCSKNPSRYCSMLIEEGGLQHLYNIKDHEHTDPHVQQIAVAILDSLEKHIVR
ZYG11B (residues 490–728), sequence (Q9C0D3 other isoform, or with tags, fused parts or gaps): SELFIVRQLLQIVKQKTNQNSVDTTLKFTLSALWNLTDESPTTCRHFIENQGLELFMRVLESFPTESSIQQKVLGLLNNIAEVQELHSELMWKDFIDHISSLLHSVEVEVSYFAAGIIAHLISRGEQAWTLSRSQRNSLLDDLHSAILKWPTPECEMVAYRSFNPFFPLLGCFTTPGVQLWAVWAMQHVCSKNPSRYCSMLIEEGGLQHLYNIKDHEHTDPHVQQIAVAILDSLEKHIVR
T2 sequence (Q7Z7L7 other isoform, or with tags, fused parts or gaps N553A | N553A): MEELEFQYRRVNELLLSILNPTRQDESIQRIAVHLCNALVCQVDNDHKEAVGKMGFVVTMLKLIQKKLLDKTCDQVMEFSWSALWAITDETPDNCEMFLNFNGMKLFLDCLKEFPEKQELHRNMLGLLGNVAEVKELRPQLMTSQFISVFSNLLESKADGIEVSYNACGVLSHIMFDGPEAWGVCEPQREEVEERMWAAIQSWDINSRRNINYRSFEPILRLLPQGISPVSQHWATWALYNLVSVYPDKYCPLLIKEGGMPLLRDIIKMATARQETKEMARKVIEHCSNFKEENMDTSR

B3: CFLHVGQD peptide (peptide)
peptide: CFLHVGQD
modifications: Printed N-terminus MEEL is read as start Met plus native residues from 469 (by analogy with SELF in ZYG11B); C-terminal His tag of pNIC-CH left out
Kd (ZER1 (residues 469–766) [3]): 3.9 µM

B4: AFLHVGQD peptide (peptide)
peptide: AFLHVGQD
Kd [4]: > 50 µM

B8: AFLHVGQD peptide (peptide)
peptide: AFLHVGQD
modifications: N-terminus MEEL read as start Met plus native residues from 469; His tag left out
Kd [5]: 7.6 µM

B11: CFLHVGQD peptide (peptide)
peptide: CFLHVGQD
Kd [4]: 2.9 µM

B13: AFLHVGQD peptide (peptide)
peptide: AFLHVGQD
modifications: Printed N-terminus SELF is read as vector Ser plus native E490-L491-F492 (numbering from the 7XYW entity, 485-728 starting AQLGTELF); His-SUMO tag left out
Kd [2]: 7.1 µM

B14: AFLHVGQD peptide (peptide)
peptide: AFLHVGQD
modifications: Printed N-terminus MEEL is read as start Met plus native residues from 469 (by analogy with SELF in ZYG11B); C-terminal His tag of pNIC-CH left out
Kd (ZER1 (residues 469–766) [3]): 1.6 µM

B16: CFLHVGQD peptide (peptide)
peptide: CFLHVGQD
modifications: Printed N-terminus SELF is read as vector Ser plus native E490-L491-F492 (numbering from the 7XYW entity, 485-728 starting AQLGTELF); His-SUMO tag left out
Kd [2]: 3 µM

The next lines start with the values.

Kd (ZER1 (residues 469–766) [1]): 3.8 µM
B1: free H2A peptide (sequence: SGRGKQGGKA) (peptide)
peptide: SGRGKQGGKA
modifications: Printed N-terminus MEEL is read as start Met plus native residues from 469 (by analogy with SELF in ZYG11B); C-terminal His tag of pNIC-CH left out

Kd [2]: 2.5 µM
B2: GFLHVGQD peptide (peptide)
peptide: GFLHVGQD
modifications: Printed N-terminus SELF is read as vector Ser plus native E490-L491-F492 (numbering from the 7XYW entity, 485-728 starting AQLGTELF); His-SUMO tag left out

Kd (ZER1 (residues 469–766) [3]): 3.1 µM
B5: TFLHVGQD peptide (peptide)
peptide: TFLHVGQD
modifications: Printed N-terminus MEEL is read as start Met plus native residues from 469 (by analogy with SELF in ZYG11B); C-terminal His tag of pNIC-CH left out

Kd (ZER1 (residues 469–766) [3]): 1.3 µM
B6: SFLHVGQD peptide (peptide)
peptide: SFLHVGQD
modifications: Printed N-terminus MEEL is read as start Met plus native residues from 469 (by analogy with SELF in ZYG11B); C-terminal His tag of pNIC-CH left out

Kd [4]: 4.9 µM
B7: SFLHVGQD peptide (peptide)
peptide: SFLHVGQD

Kd [6]: 7.1 µM
B9: SFLHVGQD peptide (peptide)
peptide: SFLHVGQD
modifications: N-terminus MEEL read as start Met plus native residues from 469; His tag left out

Kd [2]: 6.8 µM
B10: SFLHVGQD peptide (peptide)
peptide: SFLHVGQD
modifications: Printed N-terminus SELF is read as vector Ser plus native E490-L491-F492 (numbering from the 7XYW entity, 485-728 starting AQLGTELF); His-SUMO tag left out

Kd [5]: 7.9 µM
B12: TFLHVGQD peptide (peptide)
peptide: TFLHVGQD
modifications: N-terminus MEEL read as start Met plus native residues from 469; His tag left out

Kd (ZER1 (residues 469–766) [3]): 4.2 µM
B15: GFLHVGQD peptide (peptide)
peptide: GFLHVGQD
modifications: Printed N-terminus MEEL is read as start Met plus native residues from 469 (by analogy with SELF in ZYG11B); C-terminal His tag of pNIC-CH left out
